Assay results reported in patent publication US20090137002A1 (published 2009).

T1: recombinant human EphB4-Fc fusion protein (human, UniProt P54760 16-539)
T1 construct: extracellular domain; also called hEphB4; hu EphB4-Fc
T1 sequence (looked up): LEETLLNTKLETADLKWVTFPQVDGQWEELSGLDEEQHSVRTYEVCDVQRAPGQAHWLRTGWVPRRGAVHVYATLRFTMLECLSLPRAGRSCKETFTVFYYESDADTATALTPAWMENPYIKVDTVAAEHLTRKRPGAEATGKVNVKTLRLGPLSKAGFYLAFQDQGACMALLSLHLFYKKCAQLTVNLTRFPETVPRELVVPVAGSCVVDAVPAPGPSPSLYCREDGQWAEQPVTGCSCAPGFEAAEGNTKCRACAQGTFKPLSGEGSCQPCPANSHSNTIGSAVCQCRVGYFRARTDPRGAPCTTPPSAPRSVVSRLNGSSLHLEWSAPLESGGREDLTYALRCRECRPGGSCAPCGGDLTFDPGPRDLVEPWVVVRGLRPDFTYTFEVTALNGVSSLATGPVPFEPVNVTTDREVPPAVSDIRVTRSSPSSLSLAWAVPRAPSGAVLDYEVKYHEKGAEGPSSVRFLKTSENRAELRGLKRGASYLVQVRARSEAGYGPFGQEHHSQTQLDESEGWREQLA

T2: recombinant mouse EphB3-Fc fusion protein (mouse, UniProt P54754 30-537, limits assumed)
T2 construct: also called mEphB3; not shown: Fc part, not described
T2 sequence (looked up): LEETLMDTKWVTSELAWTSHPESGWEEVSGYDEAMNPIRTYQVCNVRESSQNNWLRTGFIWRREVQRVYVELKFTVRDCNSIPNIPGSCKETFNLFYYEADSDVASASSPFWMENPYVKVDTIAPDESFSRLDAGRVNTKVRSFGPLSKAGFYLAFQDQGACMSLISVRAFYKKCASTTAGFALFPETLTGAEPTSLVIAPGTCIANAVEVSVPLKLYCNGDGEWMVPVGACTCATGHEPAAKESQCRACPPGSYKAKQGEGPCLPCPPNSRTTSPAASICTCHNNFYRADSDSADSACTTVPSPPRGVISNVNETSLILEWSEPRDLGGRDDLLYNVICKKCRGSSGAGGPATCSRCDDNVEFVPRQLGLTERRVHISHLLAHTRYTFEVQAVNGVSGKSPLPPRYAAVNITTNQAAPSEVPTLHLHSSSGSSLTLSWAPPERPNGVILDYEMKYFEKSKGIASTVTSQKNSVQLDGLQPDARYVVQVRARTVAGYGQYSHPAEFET

T3: recombinant mouse EphB2 (mouse, UniProt P54763 19-540, limits assumed)
T3 construct: also called mEphB2
T3 sequence (looked up): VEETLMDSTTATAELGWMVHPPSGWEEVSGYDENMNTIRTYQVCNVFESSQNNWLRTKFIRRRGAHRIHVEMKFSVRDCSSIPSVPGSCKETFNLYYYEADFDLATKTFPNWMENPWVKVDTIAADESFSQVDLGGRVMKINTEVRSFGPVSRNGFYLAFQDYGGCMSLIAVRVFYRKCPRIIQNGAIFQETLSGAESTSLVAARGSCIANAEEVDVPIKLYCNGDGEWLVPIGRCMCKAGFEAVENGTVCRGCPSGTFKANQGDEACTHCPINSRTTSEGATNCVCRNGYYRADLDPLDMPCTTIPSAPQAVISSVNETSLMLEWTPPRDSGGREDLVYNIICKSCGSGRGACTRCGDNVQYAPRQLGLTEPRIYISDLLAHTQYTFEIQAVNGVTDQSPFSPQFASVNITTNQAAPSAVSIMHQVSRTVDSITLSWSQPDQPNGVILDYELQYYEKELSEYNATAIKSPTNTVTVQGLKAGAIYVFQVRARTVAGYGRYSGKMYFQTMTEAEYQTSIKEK

T4: recombinant mouse EphB6 (mouse, UniProt O08644 33-591, limits assumed)
T4 construct: also called mEphB6
T4 sequence (looked up): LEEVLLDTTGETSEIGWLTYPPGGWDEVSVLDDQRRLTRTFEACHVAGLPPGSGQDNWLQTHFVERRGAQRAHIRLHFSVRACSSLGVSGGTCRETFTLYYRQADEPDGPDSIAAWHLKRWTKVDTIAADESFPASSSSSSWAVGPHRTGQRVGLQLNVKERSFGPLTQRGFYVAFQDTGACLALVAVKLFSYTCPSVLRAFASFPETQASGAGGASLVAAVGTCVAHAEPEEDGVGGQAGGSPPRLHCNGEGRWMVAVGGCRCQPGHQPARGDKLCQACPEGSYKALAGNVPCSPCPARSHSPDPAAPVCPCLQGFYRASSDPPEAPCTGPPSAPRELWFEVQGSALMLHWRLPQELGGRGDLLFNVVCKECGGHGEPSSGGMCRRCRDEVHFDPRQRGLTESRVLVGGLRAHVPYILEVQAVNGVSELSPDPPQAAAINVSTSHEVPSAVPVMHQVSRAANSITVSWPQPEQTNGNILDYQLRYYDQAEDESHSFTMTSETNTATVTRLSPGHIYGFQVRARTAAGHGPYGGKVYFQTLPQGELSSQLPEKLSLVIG


How the values were obtained:
[1] = target: T1, recombinant human EphB4-Fc fusion …; assay: ELISA
[2] = target: T1, recombinant human EphB4-Fc fusion …; assay: SET (MSD), solution equilibrium titration
Description: Two independent measurements were performed on human and murine EphB4-Fc.

[3] = target: T5, recombinant mouse EphA4-Fc fusion protein (mouse, UniProt Q03137 20-547, limits assumed); assay: ELISA on coated receptor
T5 construct: also called mEphA4; not shown: Fc part, not described
T5 sequence (Q03137 20-547 limits assumed): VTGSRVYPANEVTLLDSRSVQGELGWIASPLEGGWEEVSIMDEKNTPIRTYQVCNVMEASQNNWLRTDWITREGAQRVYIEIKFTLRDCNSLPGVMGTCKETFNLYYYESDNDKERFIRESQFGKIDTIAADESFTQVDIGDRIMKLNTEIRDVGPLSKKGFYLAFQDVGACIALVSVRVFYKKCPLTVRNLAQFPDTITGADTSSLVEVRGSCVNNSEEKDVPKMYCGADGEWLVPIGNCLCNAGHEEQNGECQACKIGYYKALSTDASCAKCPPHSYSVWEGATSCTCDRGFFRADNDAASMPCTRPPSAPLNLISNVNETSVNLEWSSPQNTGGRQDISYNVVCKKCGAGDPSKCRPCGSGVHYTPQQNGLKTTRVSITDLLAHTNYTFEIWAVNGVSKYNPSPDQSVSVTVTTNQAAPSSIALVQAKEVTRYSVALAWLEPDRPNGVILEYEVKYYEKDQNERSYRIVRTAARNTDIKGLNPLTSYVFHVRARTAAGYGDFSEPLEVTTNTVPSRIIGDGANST
Description: (§1) A 96-well plate was coated with recombinant mEphB1, -2, -3, -4, -6, mEphA4 and hEphB4 in PBS o/n at 4° C. (5 μg/mL; 100 μL/well). The next day, the antigen was discarded and the plate blocked with 3% BSA/PBS (300 μl/well) for 2 hrs at room temperature (RT). Blocking solution was discarded and anti-EphB4 Fabs were added to the wells at a concentration of 20 μg/mL in 1% BSA/PBS and incubated for 1 hr at RT. Fabs were discarded and the plate was washed 3× with PBS. Anti-human F(ab′)₂—HRP was added at a concentration recommended by the manufacturer in 1% BSA/PBS and incubated for 1 hr at RT. The plate was washed 3× with PBS and 100 μL/well chemifluorescent substrate was added. After development, fluorescence was measured in a fluorescence reader.

[4] = target: T2, recombinant mouse EphB3-Fc fusion …; assay: ELISA on coated receptor
Description: as §1

[5] = target: T3, recombinant mouse EphB2; assay: ELISA on coated receptor
Description: as §1

[6] = target: T4, recombinant mouse EphB6; assay: ELISA on coated receptor
Description: as §1

ELISA signal above background [1]	Kd [2]	binding result [3]	binding result [4]	binding result [5]	binding result [6]	Binder
10 fold	> 5 nM	no binding (tested: 20 µg/mL)	no binding (tested: 20 µg/mL)	no binding (tested: 20 µg/mL)	no binding (tested: 20 µg/mL)	MOR03641 Fab (Fab, V domains shown, Monomeric HuCAL Fab (VH1A, kappa1), purified, MH-tagged; also called 3541 [sic]) VH: QVQLVQSGAEVKKPGSSVKVSCKASGGTFSTYAISWVRQAPGQGLEWMGRIIPIFGTANYAQKFQGRVTITADESTSTAYMELSSLRSEDTAVYYCARSSYTILTTYYNYNAMDNWGQGTLVTVSS VL: DIQMTQSPSSLSASVGDRVTITCRASQNINNFLNWYQQKPGKAPKLLIYGSSILQSGVPSRFSGSGSGTDFTLTISSLQPEDFAVYYCHQVSDTSDTFGQGTKVEIKR
10 fold	1.05 nM	–	no binding (tested: 20 µg/mL)	–	no binding (tested: 20 µg/mL)	MOR03640 Fab (Fab, V domains shown, Monomeric HuCAL Fab, purified, MH-tagged) VH: QVQLVESGGGLVQPGGSLRLSCAASGFTFNNSWMSWVRQAPGKGLEWVSNITSSSSMTHYADSVKGRFTISRDNSKNTLYLQMNSLRAEDTAVYYCARKGMSFYNNKYAKSMFDLWGQGTLVTVSS VL: DIELTQPPSVSVAPGQTARISCSGDNLGKKYVHWYQQKPGQAPVLVIYYDSKRPSGIPERFSGSNSGNTATLTISGTQAEDEADYYCSAWTTTMMHIVFGGGTKLTVLG
10 fold	–	no binding (tested: 20 µg/mL)	no binding (tested: 20 µg/mL)	no binding (tested: 20 µg/mL)	no binding (tested: 20 µg/mL)	MOR03639 Fab (Fab, V domains shown, Monomeric HuCAL Fab (VH3, lambda3), purified, MH-tagged) VH: QVQLVESGGGLVQPGGSLRLSCAASGFTFSNYYLHWVRQAPGKGLEWVSGISYSGSSTYYADSVKGRFTISRDNSKNTLYLQMNSLRAEDTAVYYCARFYQRRQIPHGYDVWGQGTLVTVSS VL: DIELTQPPSVSVAPGQTARISCSGDNIGDYYVHWYQQKPGQAPVLVIYRDSNRPSGIPERFSGSNSGNTATLTISGTQAEDEADYYCGSYDMPFGGTVFGGGTKLTVLG
